From patent US20230242902A1, “A HIGHLY ERROR-PRONE […] R[…] FOR TARGETED CONTINUOUS EVOLUTION IN VIVO” (The Regents of the University of California, priority 2017, published 2023)

B1: R692K: TP-DNAP1 variant (protein)
chain: MDYKDKALNDLRNVYADFDSLPLDFRQILIKDRATLLQKEDVEKKILERQEDAKKYAEYLKQSEIPERISLPNIKRHKGVSISFEETSEDMVLEPRPFIFDGLNIRCFRRETIFSLKNKILNMVKESSSFKNVSRQSVSFMYFKIFNKGKVIASTKSVNIYEDKIDERLEDLCNNFDDVLKKIIDVTYGYESLFVSETYSYVIFYAKSIYFPQPRCVNNWGNNIPNILTFDSFKLFTANKNNVSCIKQCSRFLWQKDFNTLEEMIEYKNGNICIVTPQLHINDVRDIKSFNDIRLYSESPIKTFSVIDNTITYLFYFKEHLGVIFNITKSRHDRRVTKFSPLSKFSDVKNITVCFDIESYFDPEKESNQVNIPFICCASIIYNKVIGNIVDFEGRDCVAQMIEYVVDICGELNISSVELIAHNGGGYDFHYILSSMYNPAAIKNILIRNNSFISFNFAHDGVKFSVKDSYSFLLCSLANASKAFLNEETFKKTDFPHHDLKTADDLYKVYKEWSSVNTEINHVVEKEKLLITSEHIVNFTKNDKSKTLIEWSKDYCRNDVLVLSKVWLEFKNAVEDIFNCELVDQTMTLAGLSYKLFQANMPFDVELRHPNKEDYFNMREALIGGRCISVNGIYKDVLCLDVKSLYPASMAFYDQPYGSFKRVSSRPKDELGIYYVRVTPNRNNKSNFFPIKSHNKITYNNFEESTYIAWYTNVDIDIGLSEGHNIEYIPFDSYGNIGYSWSKKGKIFEKYIKDVLYKLKIKYEKQNNKVKRNVIKIIMNSLWGKFAQKWVNFEYFIKSEDDIDFESEEAYKIWDTDFMLIKKIKESTYSSKPIQNGVFTLSWARYHMKSIWDAGAKEGAECIYSDTDSIFVHKEHFKKNAKFMLNGLKVPIIGSEVGQLELECEFDKLLCAGKKQYMGFYTYFQDGKPCIKEKKRFKGIPSNYIIPELYAHLLSGADKEAKIQFLKFRREWGSVKGYIENKTVKAT
B2: R692F: TP-DNAP1 variant (protein)
chain: MDYKDKALNDLRNVYADFDSLPLDFRQILIKDRATLLQKEDVEKKILERQEDAKKYAEYLKQSEIPERISLPNIKRHKGVSISFEETSEDMVLEPRPFIFDGLNIRCFRRETIFSLKNKILNMVKESSSFKNVSRQSVSFMYFKIFNKGKVIASTKSVNIYEDKIDERLEDLCNNFDDVLKKIIDVTYGYESLFVSETYSYVIFYAKSIYFPQPRCVNNWGNNIPNILTFDSFKLFTANKNNVSCIKQCSRFLWQKDFNTLEEMIEYKNGNICIVTPQLHINDVRDIKSFNDIRLYSESPIKTFSVIDNTITYLFYFKEHLGVIFNITKSRHDRRVTKFSPLSKFSDVKNITVCFDIESYFDPEKESNQVNIPFICCASIIYNKVIGNIVDFEGRDCVAQMIEYVVDICGELNISSVELIAHNGGGYDFHYILSSMYNPAAIKNILIRNNSFISFNFAHDGVKFSVKDSYSFLLCSLANASKAFLNEETFKKTDFPHHDLKTADDLYKVYKEWSSVNTEINHVVEKEKLLITSEHIVNFTKNDKSKTLIEWSKDYCRNDVLVLSKVWLEFKNAVEDIFNCELVDQTMTLAGLSYKLFQANMPFDVELRHPNKEDYFNMREALIGGRCISVNGIYKDVLCLDVKSLYPASMAFYDQPYGSFKRVSSRPKDELGIYYVRVTPNRNNKSNFFPIFSHNKITYNNFEESTYIAWYTNVDIDIGLSEGHNIEYIPFDSYGNIGYSWSKKGKIFEKYIKDVLYKLKIKYEKQNNKVKRNVIKIIMNSLWGKFAQKWVNFEYFIKSEDDIDFESEEAYKIWDTDFMLIKKIKESTYSSKPIQNGVFTLSWARYHMKSIWDAGAKEGAECIYSDTDSIFVHKEHFKKNAKFMLNGLKVPIIGSEVGQLELECEFDKLLCAGKKQYMGFYTYFQDGKPCIKEKKRFKGIPSNYIIPELYAHLLSGADKEAKIQFLKFRREWGSVKGYIENKTVKAT

Tested on: p1
Experiment: p1 copy number by p1-encoded mKate2 fluorescence
Format: cell-based, S. cerevisiae
Details: OR-Y24, measured in triplicate
Description: A calibration curve was established to correlate p1 copy number, determined via quantitative PCR (qPCR), with fluorescence of p1-encoded mKate2 (Table 1). Five TP-DNAP1 variants representing a wide range of copy numbers were transformed into ORY24 and passaged until w.t. p1 was displaced. The five OR-Y24 strains were grown to saturation, diluted 1:10,000 to mimic p1 fluctuation tests, and grown in triplicate 100 μL cultures and duplicate 40 mL cultures. 100 μL saturated cultures were subject to fluorescence measurement of mKate2 (ex/em=561 nm/620 nm, bandwidth=15 nm) on a flow cytometer (Invitrogen Attune NxT). Whole-cell DNA extracts were prepared from 40 mL cultures and used as templates for qPCR measurement of p1-encoded leu2 (Q180*), as described previously (Ravikumar et al., 2014). p1-encoded LEU2 was PCR amplified with qPCR-Leu2F and qPCR Leu2R; and genomic LEU3 was PCR amplified with qPCR-Leu3F and qPCR-Leu3R using SyBR Green (Fisher Scientific) master mix.
To assay p1 copy number for large-scale p1 fluctuation tests, additional replicates of OR-Y24 strains were grown from the 1:10,000 dilution in triplicate and saturated cultures were subject to fluorescence measurement via flow cytometry. Fluorescence measurements were converted to copy number with the linear calibration curve.
To assay relative p1 copy number for small-scale p1 fluctuation tests, an additional 200 μL culture of OR-Y24 strains were grown from the 1:10,000 dilution. 200 μL saturated cultures were subject to an OD600 measurement and fluorescence measurement of mKate2 (ex/em=588 nm/633 nm), using a microplate reader (TECAN Infinite M200 PRO). A linear relationship was assumed between p1 copy number and OD600-normalized mKate2 fluorescence. Copy numbers were calculated from normalization to a w.t. TP-DNAP1 control.
For a few large-scale p1 fluctuation tests, p1 copy number was assayed by the method of small scale p1 fluctuation tests (i.e. microplate reader measurement). For these experiments, mutant TP-DNAP1 p1 copy numbers were calculated by normalization to a w.t. TP-DNAP1 control. The copy number of this control was assumed to be the average w.t. TP-DNAP1 copy number from all large-scale p1 fluctuation tests that used flow cytometry measurements.
TP-DNAP1 plasmids were isolated from these strains and subject to Sanger sequencing. 210 unique variants were identified and the corresponding plasmids were re-transformed into OR-Y24. Transformed strains were passaged in SC-UH until w.t. p1 was displaced, and subject to p1 copy number measurement in triplicate. Four high copy variants were directly subject to qPCR measurements for validation. To test the suppressor activity of the G410H mutation, which yields increased p1 copy number, this amino acid change was added to several low-activity TP-DNAP1 variants. p1 copy number was similarly assayed for these strains.

Molecule	Mean fold-increase over w.t. (p1 copy number)
B1	1.88 fold
B2	2.6 fold
